Experimental data: US20110165161A1, “ANTI-EPCAM ANTIBODIES THAT INDUCE APOPTOSIS OF CANCER CELLS AND METHODS USING SAME” (priority 2009, published 2011)
Where a chain is given by its changes, count along the chain named. Blank lines part the entries; values can stand above or below the molecule they belong to.

Tests used:
[1] = test system: COLO 205 colon cancer cells; test: Cytotoxicity of anti-EpCAM antibodies in combination with oxaliplatin in COLO 205; format: cell-based, human; conditions: No mAb added, 24 hr
Procedure: Oxaliplatin, combined with infusional administration of 2 other chemotherapy drugs, 5-fluorouracil/leucovorin (5-FU/LV), is now considered as one of the as first-line treatments for people with advanced carcinoma of the colon or rectum (André et al. (2004) N Engl J Med 350(23):2343-2351). To test the cytotoxicity of anti-EpCAM antibodies in the presence of oxaliplatin, 1×10^5 COLO 205 cells were seeded to each well of a 96-well plate, and then 0.03, 0.3 and 3 μg/ml of anti-EpCAM or control (9E10) mAbs in combination with oxaliplatin at concentration of 0, 0.01, 0.1, and 1 μg/ml diluted in the medium were added into the cells. After a 24-hr incubation at 37° C., the cells were stained with 0.3 μl of FITC-conjugated Annexin V (Strong Biotech Corp. Cat. No. AVK250) in 50 μl Annexin V binding buffer (Strong Biotech Corp. Cat. No. AVK250) at RT for 20 min. After wash, the cells were then stained with 0.3 μl of propidium iodide in 200 μl Annexin V binding buffer. Annexin V and Propidium Iodide were used as a joint indicator for measuring cell death. The data were acquired with BD FACSCalibur based on an acquisition of 3,000-5,000 cells and analyzed with the Cell Quest software. The combined percentages of the Annexin V+/PI+, Annexin V+/PI− and Annexin V−/PI+populations were considered as dead cells.

EGFI-Cr1 E25K = biological target: T1, EGFI-Cr1 E25K (human, UniProt P16422 24-63); test: direct ELISA, coated EGFI-Cr1 fusion, 0.1 µg/ml antibody
T1 construct: not shown: The fused constant region of human immunoglobulin gamma 1 heavy chain (Cr1)
T1 chain: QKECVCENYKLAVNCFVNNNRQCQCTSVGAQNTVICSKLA
Procedure: (§1) A direct ELISA was used for testing the reactivity of anti-EpCAM antibodies toward variant EpCAM mutants. Briefly, purified EpCAM EGF-1 fusion proteins (WT, Q24A, E25K, E26D, A35T, N37R, F39A, V40E, N41A, N42E, N43A, R44G, Q45A, Q47A or T49A) and irrelevant control (CEA-Cr1) were pre-diluted to 0.5 μg/ml in coating buffer (8.4 g NaHCO₃, 3.4 g Na₂CO₃ in 1 L H₂O, pH 9.5) and aliquoted (100 μl/well) into 96-well plates. […] Plates were then washed 3 times with PBST followed by the addition of the enzyme substrate TMB (BD Biosciences, Cat. No. 555214). […] The optical densities at 450 nm wavelength were measured on an ELISA plate reader.

EGFI-Cr1 N42E = biological target: T2, EGFI-Cr1 N42E (human, UniProt P16422 24-63); test: as above
T2 construct: not shown: the constant region of human immunoglobulin gamma 1 heavy chain (Cr1) fused at the C-terminus
T2 chain: T1 chain with K2E, N19E
Procedure: as §1

EGFI-Cr1 E26D = biological target: T3, EGFI-Cr1 E26D (human, UniProt P16422 24-63); test: as above
T3 construct: not shown: The fused constant region of human immunoglobulin gamma 1 heavy chain (Cr1)
T3 chain: T1 chain with K2E, E3D
Procedure: as §1

EGFI-Cr1 F39A = biological target: T4, EGFI-Cr1 F39A (human, UniProt P16422 24-63); test: as above
T4 construct: not shown: The fused constant region of human immunoglobulin gamma 1 heavy chain (Cr1)
T4 chain: T1 chain with K2E, F16A
Procedure: as §1

[2] = biological target: T5, EGFI-Cr1 wild type (first EGF-like repeat of human EpCAM fused to the constant region of human immunoglobulin … (human, UniProt P01857-1 99-330 = IgG part)); test: as above
T5 construct: cDNA covered aa 1-63; Expressed in COS-7 cells; also called WT; EpCAM EGF-1 fusion protein WT
Procedure: as §1

EGFI-Cr1 Q45A = biological target: T6, EGFI-Cr1 Q45A (human, UniProt P16422 24-63); test: as above
T6 construct: not shown: the constant region of human immunoglobulin gamma 1 heavy chain (Cr1) fused at the C-terminus
T6 chain: T1 chain with K2E, Q22A
Procedure: as §1

EGFI-Cr1 Q24A = biological target: T7, EGFI-Cr1 Q24A (human, UniProt P16422 25-63); test: as above
T7 construct: not shown: The fused constant region of human immunoglobulin gamma 1 heavy chain (Cr1)
T7 chain: T1 chain with Q1A, K2E
Procedure: as §1

EGFI-Cr1 T49A = biological target: T8, EGFI-Cr1 T49A (human, UniProt P16422 24-63); test: as above
T8 construct: not shown: the constant region of human immunoglobulin gamma 1 heavy chain (Cr1) fused at the C-terminus
T8 chain: T1 chain with K2E, T26A
Procedure: as §1

EGFI-Cr1 N37R = biological target: T9, EGFI-Cr1 N37R (human); test: as above
T9 construct: not shown: The fused constant region of human immunoglobulin gamma 1 heavy chain (Cr1)
T9 chain: T1 chain with K2E, N14R
Procedure: as §1

EGFI-Cr1 R44G = biological target: T10, EGFI-Cr1 R44G (human, UniProt P16422 24-63); test: as above
T10 construct: not shown: the constant region of human immunoglobulin gamma 1 heavy chain (Cr1) fused at the C-terminus
T10 chain: T1 chain with K2E, R21G
Procedure: as §1

EGFI-Cr1 V40E = biological target: T11, EGFI-Cr1 V40E (human); test: as above
T11 construct: not shown: The fused constant region of human immunoglobulin gamma 1 heavy chain (Cr1)
T11 chain: T1 chain with K2E, V17E
Procedure: as §1

EGFI-Cr1 Q47A = biological target: T12, EGFI-Cr1 Q47A (human, UniProt P16422 24-63); test: as above
T12 construct: not shown: the constant region of human immunoglobulin gamma 1 heavy chain (Cr1) fused at the C-terminus
T12 chain: T1 chain with K2E, Q24A
Procedure: as §1

EGFI-Cr1 N43A = biological target: T13, EGFI-Cr1 N43A (human, UniProt P16422 24-63); test: as above
T13 construct: not shown: the constant region of human immunoglobulin gamma 1 heavy chain (Cr1) fused at the C-terminus
T13 chain: T1 chain with K2E, N20A
Procedure: as §1

EGFI-Cr1 N41A = biological target: T14, EGFI-Cr1 N41A (human, UniProt P16422 24-63); test: as above
T14 construct: not shown: The fused constant region of human immunoglobulin gamma 1 heavy chain (Cr1)
T14 chain: T1 chain with K2E, N18A
Procedure: as §1

EGFI-Cr1 A35T = biological target: T15, EGFI-Cr1 A35T (human, UniProt P16422 24-63); test: as above
T15 construct: not shown: The fused constant region of human immunoglobulin gamma 1 heavy chain (Cr1)
T15 chain: T1 chain with K2E, A12T
Procedure: as §1

Molecule: O=C1[O][Pt]2([NH][C@@H]3CCCC[C@H]3[NH]2)[O]C1=O [Oxaliplatin, reference compound]
- % of Annexin V + PI staining (untreated background subtracted) ([1]; oxaliplatin 0.01 μg/ml): 1%
- % of Annexin V + PI staining (untreated background subtracted) ([1]; oxaliplatin 0.1 μg/ml): 1%
- % of Annexin V + PI staining (untreated background subtracted) ([1]; oxaliplatin 1 μg/ml): 2%

- relative binding activity (% of WT) (EGFI-Cr1 E25K): 3%
- relative binding activity (% of WT) (EGFI-Cr1 N42E): 93%
- relative binding activity (% of WT) (EGFI-Cr1 E26D): 1%
- relative binding activity (% of WT) (EGFI-Cr1 F39A): 78%
- relative binding activity (% of WT) [2]: 100%
- relative binding activity (% of WT) (EGFI-Cr1 Q45A): 80%
- relative binding activity (% of WT) (EGFI-Cr1 Q24A): 44%
- relative binding activity (% of WT) (EGFI-Cr1 T49A): 17%
- relative binding activity (% of WT) (EGFI-Cr1 N37R): 1%
- relative binding activity (% of WT) (EGFI-Cr1 R44G): 95%
- relative binding activity (% of WT) (EGFI-Cr1 V40E): 71%
- relative binding activity (% of WT) (EGFI-Cr1 Q47A): 49%
- relative binding activity (% of WT) (EGFI-Cr1 N43A): 96%
- relative binding activity (% of WT) (EGFI-Cr1 N41A): 23%
- relative binding activity (% of WT) (EGFI-Cr1 A35T): 89%
B1: murine monoclonal antibody 1G10 (antibody, mouse IgG1, V domains shown)
VH: QIQLVQSGPELKKPGETVKISCKASGYTFTNYGMNWVKQAPGKGFKWMGWINTYTGEPTYADDFKGRFAFSLETSASTAYLQINNLQNEDMATYFCARWGYDFDYWGQGTTLTVSS
VL: QIVLTQSPAIMSSSPGEKVTMTCSASSSISYMNWYQQKPGTSPKRWIYDTSKLASGVPARFSGSGSGTSYSLTISSMEAEDAATYYCHQRSSYPYTFGGGTKLEIKR
notes: Mouse IgG1, kappa, from hybridoma; also called m290-1G10

- relative binding activity (% of WT) (EGFI-Cr1 E25K): 10%
- relative binding activity (% of WT) (EGFI-Cr1 N42E): 95%
- relative binding activity (% of WT) (EGFI-Cr1 E26D): 98%
- relative binding activity (% of WT) (EGFI-Cr1 F39A): 81%
- relative binding activity (% of WT) [2]: 100%
- relative binding activity (% of WT) (EGFI-Cr1 Q45A): 84%
- relative binding activity (% of WT) (EGFI-Cr1 Q24A): 93%
- relative binding activity (% of WT) (EGFI-Cr1 T49A): 94%
- relative binding activity (% of WT) (EGFI-Cr1 N37R): 97%
- relative binding activity (% of WT) (EGFI-Cr1 R44G): 1%
- relative binding activity (% of WT) (EGFI-Cr1 V40E): 1%
- relative binding activity (% of WT) (EGFI-Cr1 Q47A): 92%
- relative binding activity (% of WT) (EGFI-Cr1 N43A): 100%
- relative binding activity (% of WT) (EGFI-Cr1 N41A): 63%
- relative binding activity (% of WT) (EGFI-Cr1 A35T): 93%
B2: murine monoclonal antibody 1F10 (antibody, mouse IgG1, V domains shown)
VH: EVKLLESGGGLVQPGGSLKLSCAASGFDFSRYWMSWVRQAPGKGLEWIGEINPDSSTMNYTPSLKDKFIISRDNAKNTLYLQMSKVRSEDTALYYCARGAYAMDYWGQGTSVTVSS
VL: QAVVTQESALTTSPGETVTLTCRSSTGAVTTSNNANWVQEKPDHLFTGLIGATNNRAPGVPARFSGSLIGDKAALTITGAQTEDEAIYFCALWYINHWVFGGGTKLTVLG
notes: Mouse IgG1, lambda 1, from hybridoma; also called m338-1F10.3
